The target in test [1] is SPA-KLPOS (SPA-KLPO with the cysteine of the kink replaced by serine). The test can be described thus: SPR.
Test [2] concerns the target SPA-KLPO (SPA-KLP with Lys67 replaced by hydroxyproline). The test is described as follows: SPR.
Test [3] deals with Recombinant rat mannose-binding lectin (MBL), wild-type (rat) (UniProt P19999). The test can be described thus: SPR.
The target of test [4] is Rat MBL, kink mutant (kink-like region removed by insertion of a proline residue) (rat) (UniProt P19999). The test can be described thus: SPR.
Test [5] has as its target SPA-KLP (SP-A with Glu63 to Lys, Cys64 to Leu and Glu66 to Pro). The test can be described thus: SPR.
Test [6] deals with SPA-KL (SP-A with Glu63 to Lys and Cys64 to Leu). The test is described as follows: SPR.
For test [7], the target named is Rat MBL, deletion mutant (one Gly-Xaa-Yaa triplet removed from the collagenous domain) (rat) (UniProt P19999). The test can be described thus: SPR.
The target of test [8] is Rat MBL, double-deletion mutant (two Gly-Xaa-Yaa triplets removed from the collagenous domain) (rat) (UniProt P19999). The test can be described thus: SPR.
For test [9], the target named is Rat MBL, insertion mutant (a single Gly-Pro-Hyp inserted near the kink-like region) (rat) (UniProt P19999). The test can be described thus: SPR.
Test [10] concerns the target SPA-KLPOdel (SPA-KLPO with the kink sequence PCPP removed). The test is described as follows: SPR.
Test [11] addresses Recombinant rat mannose-binding lectin (MBL), wild-type (rat) (UniProt P19999). The test is described as follows: SPR. This is another data set of the same source.
Test [12] deals with SPA-KLPOS (SPA-KLPO with the cysteine of the kink replaced by serine).
The target in test [13] is SPA-KLPO (SPA-KLP with Lys67 replaced by hydroxyproline).
Test [14] has as its target SPA-KLP (SP-A with Glu63 to Lys, Cys64 to Leu and Glu66 to Pro).
Test [15] addresses SPA-KLPOdel (SPA-KLPO with the kink sequence PCPP removed).

Like-named read-outs stand apart in the source and are kept apart here.

As to “MASP-2A (rat MBL-associated serine protease-2, catalytically inactive, Ser613 to Ala) (enzyme)”, the KD, complex 1 stood at 99 nM in [1]; 97 nM in [2]; 4.9 nM in [9]; 29 nM in [10]; 3.8 nM in test [11]. For the same substance, the KD, complex 2 in [1] was 203 nM; in test [2], 232 nM; in test [3], 165 nM; in [4] it was 136 nM; in test [5] it was 104 nM; in test [6] it was 2120 nM. For the same substance, the KD, complex 2 in [7] worked out at 175 nM; in test [8], 195 nM; in [9], 199 nM; in test [10], 114 nM; in [11] it was 166 nM. Besides, the koff, complex 1 was found to be 0.0046 s⁻¹ in test [1]; 0.0025 s⁻¹ in test [2]; 0.0062 s⁻¹ in test [4]; 0.0038 s⁻¹ in test [7]; 0.0017 s⁻¹ in [10]. The koff, complex 2 in test [1] was 0.037 s⁻¹; in [2], 0.022 s⁻¹; in test [3], 0.00475 s⁻¹; in [5], 0.0176 s⁻¹; in test [7], 0.0054 s⁻¹; in test [10] it was 0.021 s⁻¹. For the same substance, the kon, complex 1 amounted to 45000 M⁻¹ s⁻¹ in test [1], 26000 M⁻¹ s⁻¹ in [2], 54000 M⁻¹ s⁻¹ in test [5] and 53000 M⁻¹ s⁻¹ in test [10]. Also, the kon, complex 2 in [1] was 210000 M⁻¹ s⁻¹; in [2], 96000 M⁻¹ s⁻¹; in test [5] it was 360000 M⁻¹ s⁻¹.

In the case of “MASP-2K (rat MBL-associated serine protease-2, catalytically active, Arg424 to Lys) (enzyme)”, the Half-time for MASP-2K activation, fucose-Sepharose as target in test [12] is 166 min; in test [13], 256 min; in test [14], 270 min; in test [15] it was 316 min.

For the origin of these results see publication PMC2856262.
